B1: His-tagged full length PGC-1α (natural protein, UniProt O70343 1-797, looked up)
chain: MAWDMCSQDSVWSDIECAALVGEDQPLCPDLPELDLSELDVNDLDTDSFLGGLKWCSDQSEIISNQYNNEPANIFEKIDEENEANLLAVLTETLDSLPVDEDGLPSFDALTDGAVTTDNEASPSSMPDGTPPPQEAEEPSLLKKLLLAPANTQLSYNECSGLSTQNHAANHTHRIRTNPAIVKTENSWSNKAKSICQQQKPQRRPCSELLKYLTTNDDPPHTKPTENRNSSRDKCASKKKSHTQPQSQHAQAKPTTLSLPLTPESPNDPKGSPFENKTIERTLSVELSGTAGLTPPTTPPHKANQDNPFKASPKLKPSCKTVVPPPTKRARYSECSGTQGSHSTKKGPEQSELYAQLSKSSGLSRGHEERKTKRPSLRLFGDHDYCQSLNSKTDILINISQELQDSRQLDFKDASCDWQGHICSSTDSGQCYLRETLEASKQVSPCSTRKQLQDQEIRAELNKHFGHPCQAVFDDKSDKTSELRDGDFSNEQFSKLPVFINSGLAMDGLFDDSEDESDKLSYPWDGTQPYSLFDVSPSCSSFNSPCRDSVSPPKSLFSQRPQRMRSRSRSFSRHRSCSRSPYSRSRSRSPGSRSSSRSCYYYESSHYRHRTHRNSPLYVRSRSRSPYSRRPRYDSYEAYEHERLKRDEYRKEHEKRESERAKQRERQKQKAIEERRVIYVGKIRPDTTRTELRDRFEVFGEIEECTVNLRDDGDSYGFITYRYTCDAFAALENGYTLRRSNETDFELYFCGRKQFFKSNYADLDTNSDDFDPASTKSKYDSLDFDSLLKEAQRSLRR
B2: His-tagged PGC-1α (501–797) (domain or fragment, UniProt O70343 501-797, looked up)
chain: NSGLAMDGLFDDSEDESDKLSYPWDGTQPYSLFDVSPSCSSFNSPCRDSVSPPKSLFSQRPQRMRSRSRSFSRHRSCSRSPYSRSRSRSPGSRSSSRSCYYYESSHYRHRTHRNSPLYVRSRSRSPYSRRPRYDSYEAYEHERLKRDEYRKEHEKRESERAKQRERQKQKAIEERRVIYVGKIRPDTTRTELRDRFEVFGEIEECTVNLRDDGDSYGFITYRYTCDAFAALENGYTLRRSNETDFELYFCGRKQFFKSNYADLDTNSDDFDPASTKSKYDSLDFDSLLKEAQRSLRR
B3: His-tagged PGC-1α (334–797) (domain or fragment, UniProt O70343 334-797, looked up)
chain: ECSGTQGSHSTKKGPEQSELYAQLSKSSGLSRGHEERKTKRPSLRLFGDHDYCQSLNSKTDILINISQELQDSRQLDFKDASCDWQGHICSSTDSGQCYLRETLEASKQVSPCSTRKQLQDQEIRAELNKHFGHPCQAVFDDKSDKTSELRDGDFSNEQFSKLPVFINSGLAMDGLFDDSEDESDKLSYPWDGTQPYSLFDVSPSCSSFNSPCRDSVSPPKSLFSQRPQRMRSRSRSFSRHRSCSRSPYSRSRSRSPGSRSSSRSCYYYESSHYRHRTHRNSPLYVRSRSRSPYSRRPRYDSYEAYEHERLKRDEYRKEHEKRESERAKQRERQKQKAIEERRVIYVGKIRPDTTRTELRDRFEVFGEIEECTVNLRDDGDSYGFITYRYTCDAFAALENGYTLRRSNETDFELYFCGRKQFFKSNYADLDTNSDDFDPASTKSKYDSLDFDSLLKEAQRSLRR

Target: Flag-tagged full length MED1 (UniProt Q15648 1-1581)
Sequence (Q15648 whole entry): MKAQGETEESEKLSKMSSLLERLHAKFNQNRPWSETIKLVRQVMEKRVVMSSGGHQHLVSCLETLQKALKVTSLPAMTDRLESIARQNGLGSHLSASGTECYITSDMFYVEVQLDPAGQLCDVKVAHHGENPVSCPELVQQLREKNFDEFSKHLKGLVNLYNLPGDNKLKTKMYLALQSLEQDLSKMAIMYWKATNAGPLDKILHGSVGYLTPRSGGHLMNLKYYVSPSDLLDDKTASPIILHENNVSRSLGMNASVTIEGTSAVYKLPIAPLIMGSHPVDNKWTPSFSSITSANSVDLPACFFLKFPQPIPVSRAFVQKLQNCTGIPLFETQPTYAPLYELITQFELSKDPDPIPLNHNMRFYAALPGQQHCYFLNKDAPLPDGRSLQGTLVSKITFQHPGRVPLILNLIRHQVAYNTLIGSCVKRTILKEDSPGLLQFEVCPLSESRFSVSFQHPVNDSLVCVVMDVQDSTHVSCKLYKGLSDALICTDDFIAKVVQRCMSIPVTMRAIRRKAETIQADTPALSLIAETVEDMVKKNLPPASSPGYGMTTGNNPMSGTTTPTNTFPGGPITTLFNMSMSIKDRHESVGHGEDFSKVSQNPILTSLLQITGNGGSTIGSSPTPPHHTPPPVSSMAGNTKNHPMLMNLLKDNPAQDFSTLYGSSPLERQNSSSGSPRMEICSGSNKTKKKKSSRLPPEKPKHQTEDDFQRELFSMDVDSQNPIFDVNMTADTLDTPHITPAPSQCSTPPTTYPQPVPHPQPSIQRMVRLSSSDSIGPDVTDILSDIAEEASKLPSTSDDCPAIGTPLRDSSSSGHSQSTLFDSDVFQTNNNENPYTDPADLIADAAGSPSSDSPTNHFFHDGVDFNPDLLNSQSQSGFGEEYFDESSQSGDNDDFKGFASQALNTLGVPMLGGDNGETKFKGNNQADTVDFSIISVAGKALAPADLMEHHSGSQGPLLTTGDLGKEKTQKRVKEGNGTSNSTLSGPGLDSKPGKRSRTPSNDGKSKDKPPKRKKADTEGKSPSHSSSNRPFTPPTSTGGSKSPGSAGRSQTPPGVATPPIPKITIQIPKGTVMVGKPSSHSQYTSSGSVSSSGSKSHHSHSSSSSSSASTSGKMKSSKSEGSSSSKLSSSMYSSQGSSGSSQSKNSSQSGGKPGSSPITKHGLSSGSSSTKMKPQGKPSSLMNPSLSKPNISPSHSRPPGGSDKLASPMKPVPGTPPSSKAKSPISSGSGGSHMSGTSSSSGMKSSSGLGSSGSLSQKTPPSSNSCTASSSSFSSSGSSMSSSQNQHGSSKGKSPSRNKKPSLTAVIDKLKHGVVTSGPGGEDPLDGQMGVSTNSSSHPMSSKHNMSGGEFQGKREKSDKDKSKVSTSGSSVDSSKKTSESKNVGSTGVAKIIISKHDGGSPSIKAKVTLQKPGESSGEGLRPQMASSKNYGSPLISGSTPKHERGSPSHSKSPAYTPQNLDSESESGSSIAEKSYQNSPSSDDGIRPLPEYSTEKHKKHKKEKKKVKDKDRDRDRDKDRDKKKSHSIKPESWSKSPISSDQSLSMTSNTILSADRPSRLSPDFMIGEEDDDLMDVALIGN
Assay: immobilized-template protein recruitment assay

Binder	binding result
B1	binds
B2	binds
B3	binds

— PMC3217464 (Molecular cell, 2009)
